Columns and labels:
Experiment in all cases: SPR
pPGT121-LS = target: pPGT121-LS
pPGT121 = target: pPGT121
pVRC07-523-LS = target: pVRC07-523-LS
pPGT121-YTE = target: pPGT121-YTE

Substance	Kd (pPGT121-LS) [µM]	Kd (pPGT121) [µM]	Kd (pVRC07-523-LS) [µM]	Kd (pPGT121-YTE) [µM]
Rhesus macaque FcγR IIIa-1 (from UniProt A3RFZ7 21-254) (receptor)	> 20	> 20	> 20	> 20
Rhesus macaque FcγR IIa-2 (receptor)	> 20	> 20	> 20	> 20
Rhesus macaque FcγR IIb-1 (receptor)	> 20	> 20	> 20	> 20

More lines, now with the values ahead:

Kd (pPGT121-LS) [µM]	Kd (pPGT121) [µM]	Kd (pVRC07-523-LS) [µM]	Kd (pPGT121-YTE) [µM]	Substance
> 20	> 20	> 20	> 20	Rhesus macaque FcγR IIIa-3 (from UniProt A3RFZ7 21-254) (receptor)
> 20	> 20	> 20	> 20	Rhesus macaque FcγR IIa-4 (receptor)
